In US20240024426A1, “HYPOTENSIVE PHARMACEUTICAL COMPOSITION COMPRISING TRIPLE ACTIVATOR HAVING ACTIVITY FOR ALL OF GLUCAGON, GLP-1, AND GIP RECEPTORS” (HANMI PHARM. CO., LTD., priority 2020, published 2024):
Bridges are numbered along the chain shown (N, C = ends). Where no end group is shown, it is not given here. [ ]: non-standard residue; d: D form. The star is where a group is joined. Acetyl(2-(4-imidazolyl)) = O=C(Cc1c[nH]cn1)*; Aib = CC(C)(N)C(=O)O

T1: human GIP receptor (human, UniProt P48546 22-466)
T1 sequence (looked up): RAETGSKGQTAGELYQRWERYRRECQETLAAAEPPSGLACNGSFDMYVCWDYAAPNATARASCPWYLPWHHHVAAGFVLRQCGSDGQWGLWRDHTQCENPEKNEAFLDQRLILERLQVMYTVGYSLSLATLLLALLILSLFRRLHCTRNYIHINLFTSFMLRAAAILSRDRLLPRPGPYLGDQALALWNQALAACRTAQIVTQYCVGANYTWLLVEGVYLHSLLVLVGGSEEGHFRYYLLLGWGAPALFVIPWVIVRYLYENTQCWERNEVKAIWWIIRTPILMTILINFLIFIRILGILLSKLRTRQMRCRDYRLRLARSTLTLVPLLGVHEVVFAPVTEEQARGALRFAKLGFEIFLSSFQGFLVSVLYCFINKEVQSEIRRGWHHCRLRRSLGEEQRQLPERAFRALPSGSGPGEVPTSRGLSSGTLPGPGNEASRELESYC


Assays:
Test in all cases: cell-based or functional assay
human GCG receptor = human GCG receptor (human, UniProt P47871 26-477)
human GIP receptor = molecular target: T1, human GIP receptor
human GLP-1 receptor = human GLP-1 receptor (human, UniProt P43220 24-463)

Sequence of human GCG receptor (P47871 26-477): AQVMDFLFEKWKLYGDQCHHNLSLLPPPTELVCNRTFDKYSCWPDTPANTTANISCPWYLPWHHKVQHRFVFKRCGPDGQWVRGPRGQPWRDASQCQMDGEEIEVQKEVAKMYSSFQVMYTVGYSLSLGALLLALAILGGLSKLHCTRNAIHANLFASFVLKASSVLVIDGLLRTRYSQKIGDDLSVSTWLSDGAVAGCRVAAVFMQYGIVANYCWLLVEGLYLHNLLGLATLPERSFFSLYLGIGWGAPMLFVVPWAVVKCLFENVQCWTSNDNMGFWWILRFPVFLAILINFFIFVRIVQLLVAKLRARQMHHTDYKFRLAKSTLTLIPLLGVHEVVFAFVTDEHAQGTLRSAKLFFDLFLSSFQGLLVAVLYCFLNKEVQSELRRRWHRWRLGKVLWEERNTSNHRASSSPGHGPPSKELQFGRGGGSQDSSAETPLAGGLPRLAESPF

Binder | In vitro activity compared with native peptide (%) vs. Glucagon (human GCG receptor) [%] | In vitro activity compared with native peptide (%) vs. GIP (human GIP receptor) [%] | In vitro activity compared with native peptide (%) vs. GLP-1 (human GLP-1 receptor) [%]
Y[Aib]QGTFTSDYSKCLDEKAAKEFVQWLLDHHPSSGQPPPS (bridge 16-20) [Triple agonist of SEQ ID NO: 68] | 8.8 | 107 | 27.9
H[Aib]QGTFTSDYSKYLDEKRQKEFVQWLLNTC (bridge 16-20) [Triple agonist of SEQ ID NO: 51] | 2 | 0.1 | 14.4
{Acetyl(2-(4-imidazolyl))}-[Aib]QGTFTSDYSIAMDEIACKDFVNWLLNTK (bridge 15-19) [Triple agonist of SEQ ID NO: 61] | < 0.1 | 2.8 | 59.8
H[Aib]QGTFTSDYSIAMDEIHQKDFVNWLLAQC (bridge 16-20) [Triple agonist of SEQ ID NO: 55] | 0.7 | 2.4 | 27.1
{Acetyl(2-(4-imidazolyl))}-[Aib]QGTFTSDKSKYLDERAAQDFVQWLLDGGPSSGAPPPS [Triple agonist of SEQ ID NO: 62] | < 0.1 | < 0.1 | 5.2
H[Aib]QGTFTSDYSKYLDEKRQKEFVNWLLAQC (also: ring formation, positions not given here) [Triple agonist of SEQ ID NO: 56] | 4.9 | 0.8 | 57.9
Y[Aib]QGTFTSDYSKYLDECAAKEFVQWLLDHHPSSGQPPPS (bridge 16-20) [Triple agonist of SEQ ID NO: 64] | 60.1 | 92.9 | 64.6
H[Aib]EGTFTSDYSIAMDEIHQKDFVNWLLAQC (bridge 16-20) [Triple agonist of SEQ ID NO: 53] | 8.4 | 1.3 | 161
H[Aib]QGTFTSDVSSYLDGQAAKEFVAWLLKGC [Triple agonist of SEQ ID NO: 6] | < 0.1 | < 0.1 | 17
{Acetyl(2-(4-imidazolyl))}-[Aib]QGTFTSDYSICMDEIHQKDFVNWLLNTK (bridge 15-19) [Triple agonist of SEQ ID NO: 49] | < 0.1 | 3.3 | 29.8
Y[Aib]QGTFTSDYSKCLDERAAKEFVQWLLDHHPSSGQPPPS (bridge 16-20) [Triple agonist of SEQ ID NO: 69] | 9.6 | 62.8 | 24.3
{Acetyl(2-(4-imidazolyl))}-[Aib]QGTFTSDYSICMDEKHQKDFVNWLLNTK (bridge 15-19) [Triple agonist of SEQ ID NO: 59] | < 0.1 | 4 | 40.3
Y[Aib]QGTFTSDYSKYLDERACKDFVQWLLDHHPSSGQPPPS (bridge 16-20) [Triple agonist of SEQ ID NO: 71] | 12.7 | 94.7 | 90.1
{Acetyl(2-(4-imidazolyl))}-[Aib]QGTFTSDCSKYLDERAAQDFVQWLLDGGPSSGAPPPS [Triple agonist of SEQ ID NO: 63] | < 0.1 | < 0.1 | 15.3
H[Aib]QGTFTSDYSKYLDEKRAKEFVQWLLDHHPSSGQPPPSC (bridge 16-20) [Triple agonist of SEQ ID NO: 50] | 50.5 | 2.7 | 67.4
Y[Aib]QGTFTSDYSKCLDEKRAKDFVQWLLDHHPSSGQPPPS (bridge 16-20) [Triple agonist of SEQ ID NO: 70] | 71.3 | 64.4 | 15.1
HGQGTFTSDCSKYMDGQAAQDFVAWLLAGGPSSGAPPPS [Triple agonist of SEQ ID NO: 45] | < 0.1 | < 0.1 | 6.6
HGQGTFTSDCSKYLDEQHAQEFVAWLLAGGPSSGAPPPS [Triple agonist of SEQ ID NO: 46] | < 0.1 | < 0.1 | 1.4
HGQGTFTSDCSKYLDGQRAQDFVNWLLAGGPSSGAPPPS [Triple agonist of SEQ ID NO: 48] | < 0.1 | < 0.1 | 1.5
HGQGTFTSDCSKYLDGQRAQEFVAWLLAGGPSSGAPPPS [Triple agonist of SEQ ID NO: 47] | < 0.1 | < 0.1 | 2.4
H[Aib]EGTFTSDYSIAMDEIHQKDFVDWLLAEC (bridge 16-20) [Triple agonist of SEQ ID NO: 54] | 1.4 | 0.1 | 30.6
H[Aib]QGTFTSDYSKCLDEKRAKEFVQWLLDHHPSSGQPPPS (bridge 16-20) [Triple agonist of SEQ ID NO: 65] | 25.2 | 11.6 | 95.4
H[Aib]QGTFTSDVSKYLDGQAAKEFVAWLLKGC [Triple agonist of SEQ ID NO: 7] | < 0.1 | < 0.1 | 13.7
Y[Aib]QGTFTSDYSKYLDECAAKDFVQWLLDHHPSSGQPPPS (also: ring formation, positions not given here) [Triple agonist of SEQ ID NO: 67] | 46.2 | 39.8 | 28.5
{Acetyl(2-(4-imidazolyl))}-[Aib]QGTFTSDYSIAMDEKHCKDFVNWLLNTK (bridge 15-19) [Triple agonist of SEQ ID NO: 60] | < 0.1 | 8.2 | 106
H[Aib]QGTFTSDYSKYLDEKRQKEFVQWLLNTKC (bridge 16-20) [Triple agonist of SEQ ID NO: 58] | 2.6 | 0.2 | 39.1
Y[Aib]QGTFTSDYSKYLDECRAKDFVQWLLDHHPSSGQPPPS (bridge 16-20) [Triple agonist of SEQ ID NO: 66] | 172 | 17.2 | 15.8
H[Aib]QGTFTSDYSIAMDEIHQKDFVNWLLNTC (bridge 16-20) [Triple agonist of SEQ ID NO: 57] | < 0.1 | 0.3 | 11.7
H[Aib]QGTFTSDYSKYLDEKRQKEFVQWLLDTC (bridge 16-20) [Triple agonist of SEQ ID NO: 52] | 7.5 | 0.3 | 44.1
